B1: Arabidopsis thaliana cryptochrome 2 (CRY2, UniProt Q96524), residues 1-535 fused after the Gal4 DNA-binding domain (Gal4BD-CRY2(535)); mutagenized window 321-412, Q96524 (parent)
chain: MKMDKKTIVWFRRDLRIEDNPALAAAAHEGSVFPVFIWCPEEEGQFYPGRASRWWMKQSLAHLSQSLKALGSDLTLIKTHNTISAILDCIRVTGATKVVFNHLYDPVSLVRDHTVKEKLVERGISVQSYNGDLLYEPWEIYCEKGKPFTSFNSYWKKCLDMSIESVMLPPPWRLMPITAAAEAIWACSIEELGLENEAEKPSNALLTRAWSPGWSNADKLLNEFIEKQLIDYAKNSKKVVGNSTSLLSPYLHFGEISVRHVFQCARMKQIIWARDKNSEGEESADLFLRGIGLREYSRYICFNFPFTHEQSLLSHLRFFPWDADVDKFKAWRQGRTGYPLVDAGMRELWATGWMHNRIRVIVSSFAVKFLLLPWKWGMKYFWDTLLDADLECDILGWQYISGSIPDGHELDRLDNPALQGAKYDPEGEYIRQWLPELARLPTEWIHHPWDAPLTVLKASGVELGTNYAKPIVDIDTARELLAKAISRTREAQIMIGAAPDEIVADSFEALGANTIKEPGLCPSVSSNDQQVPSAV

Variants of B1 are the subject of the assay. In words: yeast two-hybrid growth selection (MaV203; Gal4BD-CRY2(1-535) library x Gal4AD-CIB1; URA3 reporter on SC -Trp/-Leu/-Ura) in the dark, deep sequencing before and after selection, Enrich2 scoring; three independent screens (one at 48 h, two …). The following applies: with CIB1 (CRYPTOCHROME-INTERACTING BASIC-HELIX-LOOP-HELIX 1), dark (no blue light), screens 1, 3 and 4, Svar > 0 = enriched under dark selection for CRY2-CIB1 two-hybrid growth (URA3 reporter), < 0 = depleted, relative to wild type (whose scores are 0). 'The Enrich2 software calculates, parent: 0, not an affinity, scale: Enrich2 score, numbering: uniprot, sequence starts at 1.
Y399I: the enrichment was 2.5. As for Y399S, the enrichment is 2.82. Y399D: the enrichment is 1.99.

In the case of Y399N, the enrichment was 2.41. Turning to Y399F, the enrichment was 1.58. For Y399H, the enrichment was 1.23. As for Y399C, the figure is 1.43. On to D411E, for which the enrichment is 1.55. W397S: the enrichment was -1.08. As for W397R, the figure is -1.01; as for W397G, -0.823; as for W397C, -0.144. In the case of W397L, the enrichment was -0.429. For A388D, the enrichment is -0.472. In the case of A388P it was -0.944; in that of A388S, 0.429. In the case of A388V, the enrichment is -0.153.

A388G: the enrichment was -1.33. On to A388T, for which the enrichment was -0.454. For the variant L410R, the enrichment is 1.71.

For D389E, the enrichment is -0.54. In the case of D389V, the enrichment is -0.759. Regarding D389A, the enrichment is -0.573.

As for D389G, the enrichment was -1.23. As for D389Y, the enrichment is -0.572. In the case of D389N, the enrichment is -0.535.

On to G402R, for which the enrichment is 1.69. For G402E, the enrichment was 0.772. Take G402W: the enrichment was -0.485. Turning to G402V, the enrichment was -0.0472. As for G402K, the enrichment was 2.35. For the variant D387V, the enrichment was -0.792. In the case of D387E it was -1.15. In the case of D387G, the enrichment is -1.18. On to D387Y, for which the enrichment is -0.867.

In the case of D387A, the enrichment was -0.921. For D387N, the enrichment is -0.788. For D387H, the enrichment is -0.974. As to T384I, the enrichment was -0.949.

With T384P, the enrichment is -1.14. As for T384S, the enrichment is 0.274.

As to T384A, the enrichment is 0.177. Regarding T384K, the enrichment is -0.721. With I394S, the enrichment was 0.694. In the case of I394A, the enrichment was 1.15. Regarding I394F, the enrichment was 2.63. I394L: the enrichment is 2.29. As for I394M, the figure is 1.08. For I394V, the enrichment is 0.326. In the case of I394T it was 0.588; in that of I394N, 2.39; in that of I394Y, 1.45. With Q398E, the enrichment is 1.41. Turning to Q398L, the enrichment is 1.96.

Q398K: the enrichment is 2.11. In the case of Q398R, the enrichment was 2.52.

For Q398H, the enrichment is 1.96. As for Q398P, the enrichment is -0.641. Regarding Q398W, the enrichment was 1.99. As for L386M, the figure is 0.0161; as for L386S, -0.716.

Turning to L386V, the enrichment is 0.483. In the case of L386F, the enrichment was -0.324. In the case of L386W, the enrichment is -0.68. As for D383N, the enrichment is -0.384. As for D383V, the figure is -0.206; as for D383E, -0.349; as for D383A, -0.952. For D383Y, the enrichment was -0.379. As for D383G, the enrichment is -0.813. In the case of Y380C it was -0.0376; in that of Y380S, -0.827; in that of Y380H, -0.297.

Take Y380N: the enrichment is -1.37. On to Y380F, for which the enrichment is 1.2. As for Y380D, the figure is -0.763.

D393V: the enrichment was 0.508.

With D393E, the enrichment was 1.18. With D393N, the enrichment is 1.16.

D393Y: the enrichment was -0.612. As for D393G, the figure is 2.3; as for D393A, 1.64. D393S: the enrichment is 2.65. Regarding E409T, the enrichment was 0.84. As to E409K, the enrichment was -0.366. Take E409G: the enrichment is 0.152. As for E409V, the figure is 0.507.

Consider E409A, for which the enrichment was -0.172. With E409D, the enrichment was 0.454. In the case of F381I, the enrichment was -0.4. In the case of F381T it was 1.8. In the case of F381Y it was 0.399. As for F381C, the enrichment was 0.0158. In the case of F381L, the enrichment was 1.1.

On to F381V, for which the enrichment is -0.0604. Turning to F381S, the enrichment is -1.2. For C392G, the enrichment is -0.321.

Consider C392F, for which the enrichment is -0.128. As for C392R, the figure is -1.14. Consider C392Y, for which the enrichment was -1.08. Take C392S: the enrichment is -0.465.

Regarding C392W, the enrichment was -0.824. L385I: the enrichment is 2.28.

L385H: the enrichment is 2.39.

Take L385F: the enrichment was 2.61. As for L385P, the figure is -1.22; as for L385R, -0.336.

As to L385V, the enrichment is 2.7. Consider G396D, for which the enrichment is 0.65. For the variant G396S, the enrichment was -1.1. In the case of G396R it was 2.19; in that of G396A, -1.05. Regarding G396V, the enrichment was 0.898.

Consider E391A, for which the enrichment was -0.592. As to E391G, the enrichment was -1.1. For the variant E391V, the enrichment was -0.645.

With E391Q, the enrichment was -0.786.

As to E391D, the enrichment was -0.531. E391K: the enrichment was -0.425. With G407A, the enrichment was -0.714. As for G407V, the enrichment was 1.39. In the case of G407R, the enrichment is -0.0452.

Consider G407S, for which the enrichment is -0.771. In the case of G407C it was 1.11. Consider G407N, for which the enrichment is 2.77. In the case of G407D it was 1.47.

Turning to I400S, the enrichment was -0.343.

With I400V, the enrichment was -0.353. In the case of I400F it was 1.95. Take I400L: the enrichment is -0.846.

As to I400Y, the enrichment was 1.86. Turning to I400M, the enrichment was 0.868. As for I400N, the enrichment was -0.48. As to I400T, the enrichment was -0.933. In the case of S403I it was 2.54; in that of S403N, 0.435. For the variant S403G, the enrichment is -0.408. In the case of S403R, the enrichment is 2.21. As to S403C, the enrichment is 0.314. On to K379T, for which the enrichment is 0.481. In the case of K379M it was -1.02; in that of K379E, -0.743; in that of K379R, 0.0968. K379N: the enrichment was -0.188.

Take K379L: the enrichment was 0.965. As for K379Q, the figure is -0.304; as for K379A, 1.5; as for S401L, 2.46. Turning to S401P, the enrichment is -0.107. In the case of S401T, the enrichment is 2.02.

Take S401A: the enrichment is -0.239. As to S401Y, the enrichment is 0.744.

On to S401F, for which the enrichment is 2.4.

Consider L390V, for which the enrichment is 0.548. Turning to L390W, the enrichment is 2.28. In the case of L390M, the enrichment was -0.808. For the variant L390F, the enrichment is 1.66.

Turning to L390S, the enrichment is -1.09. L395P: the enrichment was -0.953. In the case of L395Q it was 2.71; in that of L395F, 2.13; in that of L395H, -0.769.

Take L395R: the enrichment is -0.209. D406N: the enrichment is -0.7. Consider D406V, for which the enrichment was 2.12.

For D406H, the enrichment is -0.803.

In the case of D406G, the enrichment is -0.172. Take D406A: the enrichment was -0.00151. As for D406E, the figure is -0.152; as for D406Y, -0.496.

I404T: the enrichment was -0.507. Regarding I404S, the enrichment was 1.61.

For the variant I404Y, the enrichment was 1.4. For the variant I404F, the enrichment is 2.25.

I404N: the enrichment was 1.51. In the case of I404A it was 1.16; in that of I404V, -0.182. As to P405L, the enrichment is 2.

Take P405A: the enrichment is 0.742. On to P405R, for which the enrichment is 1.02. In the case of P405T, the enrichment is 0.224. As for P405H, the enrichment was 1.08.

For W382G, the enrichment is 0.784.

For W382C, the enrichment was -0.025.

Take W382L: the enrichment is -0.17.

On to W382R, for which the enrichment is -1.18. For M378T, the enrichment is 2.32. As for M378R, the enrichment is 2.81. Regarding M378V, the enrichment is 0.308. As for H408Y, the enrichment was -0.432. Turning to H408P, the enrichment is 1.5. As for H408L, the enrichment is 1.61. In the case of H408R, the enrichment is 2.75.
